These are literature values, as cited in PMC4626678.

For this series, the target named is Trypsin (Bos taurus) (UniProt P00760).
Sequence of Trypsin (Bos taurus) (P00760 149-246): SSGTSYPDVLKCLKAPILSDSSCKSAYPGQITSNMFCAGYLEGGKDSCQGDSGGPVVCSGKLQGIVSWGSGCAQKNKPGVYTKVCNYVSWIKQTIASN

Sequence of ShPI-1 (P31713 whole entry): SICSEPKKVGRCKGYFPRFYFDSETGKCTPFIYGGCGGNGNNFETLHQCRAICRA

Regarding ShPI-1 (from UniProt P31713), the Ki was 110 pM.
